The numbers were not newly measured in PMC5268426, which cites them from elsewhere.

Where two headings read alike, the source gives them in different places.

One series addresses Prostasin (Homo sapiens) (UniProt Q16651).
The target of series [1] is Pancreatic trypsin inhibitor (PTI) (Bos taurus) (UniProt P00974).
For series [2] the target is unchanged. The source holds these as a separate data set.

Broadly, the Ki is a measure of affinity in units of concentration, obtained from inhibition or displacement. With HAI-2 (from UniProt O43291), in the series with Prostasin (Homo sapiens), the Ki was 5 nM.

Usually Kd stands for a measure of binding affinity in units of concentration. As for Trypsin (from UniProt P00760), the Kd in series [1] was 0.06 pM.

For Trypsinogen (from UniProt P00760), the Kd in series [2] was 2000 nM.
